Experimental findings from US20230064978A1, “CYCLIC PEPTIDE RECEPTOR LANTHIONINE SYNTHETASE C-LIKE PROTEIN (LANCL) AND USES THEREOF” (LATERAL IP PTY LTD, priority 2019, published 2023) are described below.

Bridges are numbered along the chain shown (N, C = ends). Where no end group is shown, it is not given here.

The target of the assay is Recombinant human 6His-LaNCL1 protein (Homo sapiens, UniProt O43813). The experiment in a line: In-vitro photolabelling of 6His-LanCL1 and LC-MS/MS to identify binding site. Here is the method: Recombinant human 6His-LaNCL1 protein (2 μM, 1 nmol, 53 μg) in 530 μL PBS was pre-incubated with 50 μM of LAT8881 or DMSO for 10 min and then treated with 25 μM LAT9991-PAL for another 30 min at RT in Nunc™ MicroWell™ 96-well plates (Thermo Fisher Scientific cat #167008) (final reaction volume, 530 μL). The samples were UV-irradiated (365 nm) for 20 min at 4° C. After UV-irradiation, the samples were split in two different samples containing 3 μg or 50 μg of protein.
Protein samples (3 μg protein) were adjusted to 1% SDS and 10 mM DTT. After incubation for 1 h at 56° C., protein samples were treated with 30 mM iodoacetamide for 45 min at RT in the dark. Dry acetone (9 volumes) prechilled to −20° C. was added and the cloudy mixture was vortexed thoroughly and incubated at −20° C. overnight. After centrifugation (15,000×g for 10 min at 4° C.), the supernatants were poured off and the remaining pellets washed with −20° C. acetone. […] After removing the supernatants, the protein pellets were air-dried and dissolved in laemmli buffer, heated at 60° C. for 20 minutes and analyzed by in gel fluorescence scanning […]
Peptides were analyzed by nanoLC-MS/MS with the Ultimate 3000 RSLC (Thermo Fisher Scientific) coupled online to a Q-Exactive Plus mass spectrometer with a NanoFlex source. […]

Chain of Recombinant human 6His-LaNCL1 protein (O43813 with tags, fused parts or gaps): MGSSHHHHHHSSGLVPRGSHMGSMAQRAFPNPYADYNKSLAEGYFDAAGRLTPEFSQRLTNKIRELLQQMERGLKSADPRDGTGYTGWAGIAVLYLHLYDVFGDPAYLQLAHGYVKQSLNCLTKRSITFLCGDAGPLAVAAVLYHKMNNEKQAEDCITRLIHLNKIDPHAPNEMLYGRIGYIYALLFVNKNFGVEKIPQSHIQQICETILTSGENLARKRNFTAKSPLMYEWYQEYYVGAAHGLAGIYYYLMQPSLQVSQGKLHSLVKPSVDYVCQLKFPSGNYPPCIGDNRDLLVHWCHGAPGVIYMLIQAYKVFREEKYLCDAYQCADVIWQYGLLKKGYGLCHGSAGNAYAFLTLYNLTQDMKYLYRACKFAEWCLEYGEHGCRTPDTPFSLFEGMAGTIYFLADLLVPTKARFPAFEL

On to “LAT9991-PAL: cyclic peptide of SEQ ID NO:12 (LAT9991) conjugated to the PAL (Photo-Activated Labelling) grouping (CRSVEGSCG; disulfide 1-8 (inferred); also: PAL group on N-terminal Cys-Arg part)”, for which the “Modified LANCL1 peptide sequence differentially detected” value (25 μM probe, dependent peptide MS analysis) is reported as “IDPHAPNEM(ox)LYGR”. In addition, the “Most likely site for localization of the probe adduct on LANCL1” value (amino acid residues 171-174 of human LANCL1 (SEQ ID NO:56)) is given as “PNEM”.
